The target in this assay is MoKat2 tagged with FLAG or GFP (MoKat2-FLAG and MoKat2-GFP) (Magnaporthe oryzae). In words: native gel or EMSA. In general terms: A gel shift assay detects complexes by their altered migration in electrophoresis.

Usually stoichiometry N stands for a count of units in the complex or per binding partner. “MoKat2 tagged with FLAG or GFP (MoKat2-FLAG and MoKat2-GFP) (enzyme)” showed a stoichiometry N of 2.
